From PMC7042235, “Structural basis for two-way communication between dynein and microtubules” (Nature Communications, 2020) come the findings set out here.

This assay addresses T1, microtubules (polymerized porcine tubulin) (porcine, UniProt P02550 1-451; P02554 1-445).
T1 construct: alpha-tubulin of porcine tubulin; beta-tubulin of porcine tubulin; Polymer of alpha/beta-tubulin dimers; 14-protofilament MTs were selected for cryo-EM; The species is stated only for the co-sedimentation assay; also called MT; MTs; source: porcine tubulin, polymerized (stabilised with 10 uM paclitaxel for co-sedimentation; GMPCPP-MT for cryo-EM)
As to the kind of experiment: co-sedimentation; purified MTBDs (1-32 uM) mixed with 5 uM paclitaxel-stabilised porcine MTs; 100 mM PIPES pH 6.8, 50 mM NaCl, 2 mM MgCl2, 1 mM EGTA; 210,000 x g, 25 °C, 10 min; pellets on SDS-PAGE, densitometry, one-site curve fitting. The settings on record: both partners purified.

B1: MTBD-Low, MTBD(S3097C/V3222C) (domain or fragment)
chain: KCIQDIEPTILEAQRGVKNIKKQQLTEIRSMVNPPSGVKIVMEAVCAILGYQFSNWRDIQQFIRKDDFIHNIVHYDTTLHMKPQIRKYMEEEFLSDPNFTYETINRASKACGPLYQWVNAQINFSKCLENVDPLRQE
modifications: intramolecular disulfide bond between C3097 (CC1) and C3222 (CC2)
What is called Kd is a measure of binding affinity in units of concentration. Lower therefore signals tighter binding. The molecule B1 had a Kd greater than 200 µM.
